Experimental data: paper PMC3182822

Molecular target: trypsin from bovine pancreas (bovine)
Assay: enzyme inhibition kinetics

Chain of trypsin from bovine pancreas (bovine) (P00760 24-246): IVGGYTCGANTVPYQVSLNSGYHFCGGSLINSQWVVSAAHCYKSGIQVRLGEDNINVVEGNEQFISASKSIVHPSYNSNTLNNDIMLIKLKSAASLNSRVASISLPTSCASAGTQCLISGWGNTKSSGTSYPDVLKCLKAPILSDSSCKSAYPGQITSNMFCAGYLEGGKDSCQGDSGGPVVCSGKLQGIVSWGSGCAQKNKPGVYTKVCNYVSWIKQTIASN

Substance “ovomucoid trypsin inhibitor (from UniProt P01005 25-210) (natural protein)” has a Ki of 57 µM.
